From patent US20250002610A1 (Genmab, published 2025)
Changes are numbered by the printed parent chain.

T1: His-tagged recombinant Human FAPα (Acro Biosystems, Cat #FAP-H5244-100ug) (human, UniProt Q12884 26-760)
T1 construct: Bought reagent; not shown: His tag
T1 sequence (looked up): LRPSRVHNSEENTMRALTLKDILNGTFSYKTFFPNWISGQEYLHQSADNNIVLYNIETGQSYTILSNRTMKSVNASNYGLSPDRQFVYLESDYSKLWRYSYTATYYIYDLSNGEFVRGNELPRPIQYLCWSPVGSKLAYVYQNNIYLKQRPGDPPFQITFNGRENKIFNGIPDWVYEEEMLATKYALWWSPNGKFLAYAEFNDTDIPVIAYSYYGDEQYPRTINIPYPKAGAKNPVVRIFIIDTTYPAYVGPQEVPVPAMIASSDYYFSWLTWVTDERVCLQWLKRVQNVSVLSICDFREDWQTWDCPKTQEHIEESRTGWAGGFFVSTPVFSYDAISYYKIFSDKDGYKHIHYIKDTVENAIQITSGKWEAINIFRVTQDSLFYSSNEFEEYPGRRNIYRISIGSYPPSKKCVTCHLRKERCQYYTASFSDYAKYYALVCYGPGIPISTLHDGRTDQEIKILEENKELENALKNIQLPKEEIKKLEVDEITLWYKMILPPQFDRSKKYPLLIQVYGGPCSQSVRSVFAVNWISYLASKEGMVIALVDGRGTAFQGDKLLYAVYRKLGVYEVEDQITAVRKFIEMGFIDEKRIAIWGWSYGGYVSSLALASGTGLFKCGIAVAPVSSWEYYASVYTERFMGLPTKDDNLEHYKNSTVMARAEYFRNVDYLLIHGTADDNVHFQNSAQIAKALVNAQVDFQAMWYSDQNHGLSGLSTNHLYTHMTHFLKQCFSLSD

T2: His-tagged recombinant Cynomolgus FAPα (Acro Biosystems, Cat #FAP-C52H3-100ug) (cynomolgus monkey, UniProt A0A2K5VGF4 26-760)
T2 construct: Bought reagent; also called recombinant cynomolgus monkey FAPα; not shown: His tag of the vendor's construct (Acro Biosystems FAP-C52H3)
T2 sequence: T1 sequence (looked up) with S4P, V236F, E392D

B1: BisG1-FAPα-FERL/DR4-FERR (bispecific antibody, human IgG1, kappa, lambda)
heavy 1: EVQLLESGGGLVQPGGSPRLSCEASGFTFSSYALSWVRQAPGKGLEWVSAISGSGGGRYYADSVKGRFTISRDNSKNTLFLQMNSLRAEDTAVYYCAKEGYSSSGTYWDHWGQGTLVTVSSASTKGPSVFPLAPSSKSTSGGTAALGCLVKDYFPEPVTVSWNSGALTSGVHTFPAVLQSSGLYSLSSVVTVPSSSLGTQTYICNVNHKPSNTKVDKRVEPKSCDKTHTCPPCPAPEFERGPSVFLFPPKPKDTLMISRTPEVTCVVVDVSHEDPEVKFNWYVDGVEVHNAKTKPREEQYNSTYRVVSVLTVLHQDWLNGKEYKCKVSNKALPAPIEKTISKAKGQPREPQVYTLPPSREEMTKNQVSLTCLVKGFYPSDIAVEWESNGQPENNYKTTPPVLDSDGSFLLYSKLTVDKSRWQQGNVFSCSVMHEALHNHYTQKSLSLSPG
light 1: AIQMTQSPSSVSASVGDRVTITCRASQGVSSWLAWYQQKPGRAPKLLIYVASTLQSGVPSRFSGSGSGTDFTLTINSLQPEDFATYYCQQANSFPPTFGQGTRLEMKRTVAAPSVFIFPPSDEQLKSGTASVVCLLNNFYPREAKVQWKVDNALQSGNSQESVTEQDSKDSTYSLSSTLTLSKADYEKHKVYACEVTHQGLSSPVTKSFNRGEC
heavy 2: QVQLQESGPGLVKPSGTLSLTCAVSGGSISSYSWWSWIRQPPGKGLEWIGELYHSGSTNYNPSLKSRVTISVDKSKNQFSLKLRSVTAADTAVYYCVRGVATIDYWGQGTLVTVSSASTKGPSVFPLAPSSKSTSGGTAALGCLVKDYFPEPVTVSWNSGALTSGVHTFPAVLQSSGLYSLSSVVTVPSSSLGTQTYICNVNHKPSNTKVDKRVEPKSCDKTHTCPPCPAPEFERGPSVFLFPPKPKDTLMISRTPEVTCVVVDVSHEDPEVKFNWYVDGVEVHNAKTKPREEQYNSTYRVVSVLTVLHQDWLNGKEYKCKVSNKALPAPIEKTISKAKGQPREPQVYTLPPSREEMTKNQVSLTCLVKGFYPSDIAVEWESNGQPENNYKTTPPVLDSDGSFFLYSRLTVDKSRWQQGNVFSCSVMHEALHNHYTQKSLSLSPG
light 2: QSALTQPPSASGSPGQSVTISCTGTSSDVGGYNFVSWYQQDPGKAPKLLIYEVTKRPSGVPDRFSGSKSGNTASLTVSGLQAEDEADYYCSSYAGSNNVMFGGGTKLTVLGQPKAAPSVTLFPPSSEELQANKATLVCLISDFYPGAVTVAWKADSSPVKAGVETTTPSKQSNNKYAASSYLSLTPEQWKSHRSYSCQVTHEGSTVEKTVAPTECS
notes: Human IgG1 bispecific made by controlled Fab-arm exchange of IgG1-FAPα-FERL and IgG1-DR4-FERR; monovalent for FAPα and for DR4; also called GEN1057
B2: BisG1-FAPα-FERL/b12-FERR (bispecific antibody, human IgG1, kappa)
heavy 1: B1 heavy 1
light 1: B1 light 1
heavy 2: QVQLVQSGAEVKKPGASVKVSCQASGYRFSNFVIHWVRQAPGQRFEWMGWINPYNGNKEFSAKFQDRVTFTADTSANTAYMELRSLRSADTAVYYCARVGPYSWDDSPQDNYYMDVWGKGTTVIVSSASTKGPSVFPLAPSSKSTSGGTAALGCLVKDYFPEPVTVSWNSGALTSGVHTFPAVLQSSGLYSLSSVVTVPSSSLGTQTYICNVNHKPSNTKVDKRVEPKSCDKTHTCPPCPAPEFERGPSVFLFPPKPKDTLMISRTPEVTCVVVDVSHEDPEVKFNWYVDGVEVHNAKTKPREEQYNSTYRVVSVLTVLHQDWLNGKEYKCKVSNKALPAPIEKTISKAKGQPREPQVYTLPPSREEMTKNQVSLTCLVKGFYPSDIAVEWESNGQPENNYKTTPPVLDSDGSFFLYSRLTVDKSRWQQGNVFSCSVMHEALHNHYTQKSLSLSPG
light 2: EIVLTQSPGTLSLSPGERATFSCRSSHSIRSRRVAWYQHKPGQAPRLVIHGVSNRASGISDRFSGSGSGTDFTLTITRVEPEDFALYYCQVYGASSYTFGQGTKLERKRTVAAPSVFIFPPSDEQLKSGTASVVCLLNNFYPREAKVQWKVDNALQSGNSQESVTEQDSKDSTYSLSSTLTLSKADYEKHKVYACEVTHQGLSSPVTKSFNRGEC

Columns and labels:
[1] = target: T1, His-tagged recombinant Human FAPα (Acro …); test: BLI (Octet), antigen immobilized on AR2G sensors, average of three experiments
Protocol: (§1) Experiments were carried out while shaking at 1,000 RPM at 30° C. Amine Reactive 2nd Generation (AR2G) biosensors (Sartorius, Cat #18-5092) were activated by reaction with 20 mM EDC (N-(3-Dimethylaminopropyl)-N′-ethylcarbodiimide hydrochloride) (Sigma-Aldrich, Cat #03449) and 10 mM s-NHS (N-hydroxysulfosuccinimide sodium salt) (Sigma-Aldrich, Cat #56485) for 300 s. The activated AR2G sensors were loaded with 2.5 μg/mL His-tagged recombinant Human FAPα (Acro Biosystems, Cat #FAP-H5244-100ug) in 10 mM Sodium Acetate pH 5.0 (Sartorius, Cat #18-1069) or 2.5 μg/mL His-tagged recombinant Cynomolgus FAPα (Acro Biosystems, Cat #FAP-C52H3-100ug) in 10 mM Sodium Acetate pH 5.0 for 600 s and quenched with 1 M ethanolamine pH 8.5 (Sartorius Cat #18-1071) for 300 s. After a baseline measurement in Sample Diluent (1000 s; Sartorius, Cat #18-1104), the association (100 s) and dissociation (4,000 s) of functionally monovalent antibody was determined using a concentration range of 0.78-800 nM with two-fold dilution steps in Sample Diluent. The molecular mass of the antibodies used for the calculations was calculated from the sequences.
(§2) The Y-axis was aligned to the last 10 s of the baseline; Interstep Correction alignment to dissociation and Savitzky-Golay filtering were applied. Data traces with a response <0.05 nm were excluded from analysis. […] The data were fitted with the 1:1 Global Full fit model using a window of interest for the association of 100 s and dissociation time set 4,000 s.

[2] = target: T2, His-tagged recombinant Cynomolgus FAPα …; test: as above
Protocol: as §1, §2

Row | Binder | Kd [1] [nM] | koff [1] [s⁻¹] | kon [1] [M⁻¹ s⁻¹] | Kd [2] [nM] | koff [2] [s⁻¹] | kon [2] [M⁻¹ s⁻¹]
1 | B1 | 0.026 | 3e-05 | 1.1e+06 | 0.037 | 2.8e-05 | 770000
2 | B2 | 0.017 | 2.1e-05 | 1.2e+06 | 0.034 | 2.5e-05 | 750000
